Literature values as cited in publication PMC4769797.

Biological target: VEGFR1 (Homo sapiens) (UniProt P17948)
UniProt P17948, sequence (P17948 27-1338): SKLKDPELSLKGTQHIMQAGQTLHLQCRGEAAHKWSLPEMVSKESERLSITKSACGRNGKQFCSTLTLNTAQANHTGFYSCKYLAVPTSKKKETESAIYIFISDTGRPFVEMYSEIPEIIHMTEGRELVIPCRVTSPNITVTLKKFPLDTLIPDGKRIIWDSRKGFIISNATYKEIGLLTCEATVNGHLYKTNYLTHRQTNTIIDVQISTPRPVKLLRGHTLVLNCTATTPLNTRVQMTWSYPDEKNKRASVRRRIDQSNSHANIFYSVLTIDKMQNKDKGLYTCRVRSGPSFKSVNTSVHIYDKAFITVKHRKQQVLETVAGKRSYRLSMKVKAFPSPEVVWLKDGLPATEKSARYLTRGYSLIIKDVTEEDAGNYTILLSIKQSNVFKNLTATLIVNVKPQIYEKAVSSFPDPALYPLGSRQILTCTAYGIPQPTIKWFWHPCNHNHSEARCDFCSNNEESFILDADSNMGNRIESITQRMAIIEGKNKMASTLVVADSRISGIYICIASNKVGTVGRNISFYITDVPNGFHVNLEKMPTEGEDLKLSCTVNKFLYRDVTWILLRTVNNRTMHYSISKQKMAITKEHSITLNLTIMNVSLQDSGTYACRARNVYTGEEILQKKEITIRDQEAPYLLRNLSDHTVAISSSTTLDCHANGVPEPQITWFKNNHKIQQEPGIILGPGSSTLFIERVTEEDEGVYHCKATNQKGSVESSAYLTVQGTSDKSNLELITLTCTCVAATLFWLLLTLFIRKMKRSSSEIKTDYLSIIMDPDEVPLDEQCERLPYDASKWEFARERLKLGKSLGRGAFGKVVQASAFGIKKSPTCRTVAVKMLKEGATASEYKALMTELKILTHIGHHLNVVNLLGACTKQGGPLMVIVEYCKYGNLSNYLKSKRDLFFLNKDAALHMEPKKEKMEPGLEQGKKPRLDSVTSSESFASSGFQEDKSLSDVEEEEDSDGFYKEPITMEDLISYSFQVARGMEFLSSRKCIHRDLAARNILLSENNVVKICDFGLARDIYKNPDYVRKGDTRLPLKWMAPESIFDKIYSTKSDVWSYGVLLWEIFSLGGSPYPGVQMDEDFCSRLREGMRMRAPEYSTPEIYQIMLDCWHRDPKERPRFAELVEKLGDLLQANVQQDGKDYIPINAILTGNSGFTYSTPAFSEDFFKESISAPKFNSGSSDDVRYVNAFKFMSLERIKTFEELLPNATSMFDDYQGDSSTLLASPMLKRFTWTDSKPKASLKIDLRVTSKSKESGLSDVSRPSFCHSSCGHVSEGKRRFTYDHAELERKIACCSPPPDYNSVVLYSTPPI

Kd: 0.1 nM
Substance: VEGFA (from UniProt P15692)
